Assays:
[1] = molecular target: T1, CD127 (Sinobiological, 10975-H03H-50) (UniProt P16871); assay: Biacore, CD127 immobilised on CM5 chip; bivalent model
T1 sequence (looked up): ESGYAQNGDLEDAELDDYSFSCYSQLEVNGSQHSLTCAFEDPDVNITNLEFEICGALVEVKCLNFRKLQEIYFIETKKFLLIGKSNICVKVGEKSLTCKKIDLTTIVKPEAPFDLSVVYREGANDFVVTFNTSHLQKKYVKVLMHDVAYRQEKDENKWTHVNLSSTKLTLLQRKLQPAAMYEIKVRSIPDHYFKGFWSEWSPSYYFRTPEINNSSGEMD

[2] = molecular target: T2, CD132 receptor (Sinobiological 10555-H08B) (UniProt P31785); assay: Biacore, CD132 injected over the CD127/IL-7 complex on the chip
T2 sequence (looked up): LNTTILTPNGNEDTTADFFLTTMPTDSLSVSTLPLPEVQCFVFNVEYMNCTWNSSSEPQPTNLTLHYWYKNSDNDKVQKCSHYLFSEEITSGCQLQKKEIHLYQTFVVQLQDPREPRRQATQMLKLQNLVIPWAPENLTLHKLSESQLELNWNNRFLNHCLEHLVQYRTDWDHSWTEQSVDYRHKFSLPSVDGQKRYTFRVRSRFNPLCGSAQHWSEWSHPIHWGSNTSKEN

[3] = molecular target: T2, CD132 receptor (Sinobiological 10555-H08B); assay: Biacore, CD132 injected over immobilised CD127 + IgG4 alone; steady-state model; baseline, CD127 dimerizes with CD132 in the absence of IL-7

Kd [1]	Kd [2]	Kd [3]	Substance
0.0063 µM	0.505 µM		IL-7 fused to Fc domain (IL7-Fc, CHI-HF-22007 Adipogen) (Fc fusion)
		2.5 µM	IgG4 alone (antibody)
